Measurements reported in article PMC9233703.

Legend:
[1] = molecular target: bovine brain tubulin polymerized into the microtubule lattice (bovine) (UniProt Q6B856); experiment: motor-pulling assay (TIRF microscopy); taxol-stabilized microtubules, 10 μM taxol, held by digoxigenin-labeled tubulin; 3.8 kb biotinylated DNA linker; 6 nM biotinylated kinesin-1; 1 mM ATP, 28 °C
[2] = molecular target: bovine brain tubulin polymerized into the microtubule lattice (bovine) (UniProt Q6B856); experiment: motor-pulling assay (TIRF microscopy); GDP-microtubules with GMPCPP-tubulin caps held on the surface by anti-digoxigenin antibody; tubulin with 3.8 kb biotinylated DNA linker pulled along the microtubule axis by biotinylated kinesin-1 (0.5-9 nM) joined via neutravidin; 1 mM ATP, SYTOX Green, 28 °C
[3] = molecular target: bovine brain tubulin polymerized into the microtubule lattice (bovine) (UniProt Q6B856); experiment: optical tweezer force spectroscopy; taxol-stabilized microtubules copolymerized with biotinylated tubulin, affixed to neutravidin-coated coverslip; single tubulin pulled by its α-tubulin CTT through an 8.2 kb DNA linker and an anti-digoxigenin bead, perpendicular to the microtubule axis; constant pulling velocity 0.32 μm/s; BRB80, 10 μM taxol

Substance: bovine brain tubulin labeled with an oligo-DNA handle on the α-tubulin C-terminal tail (SSL method), hybridized to a long DNA linker (from UniProt Q6B856 1-445) (complex)
- median rupture time under pulling by kinesin-1 (6 nM) [1]: 18 s
- decay time of the rupture-time histogram (4.5-9 nM biotinylated kinesin) [2]: 8.8 s
- median rupture time under pulling by kinesin-1 (plateau at high kinesin concentration) [2]: 8 s
- percentage of DNA remained on the microtubules after 5 min with 6 nM biotinylated kinesin-1 [2]: 59%
- force typically required to remove tubulin from the lattice [3]: 30 pN
- lifetime in the lattice at zero force estimated from the rupture force histogram (Dudko method, single-step extraction) [3]: 40 s
- rupture force [3]: 33.8 pN
